Experimental data reported in the nanobody polyreactivity screen of Harvey et al. (2022).

Experiment: yeast display, Sf9 membrane polyspecificity reagent, FACS + sequencing; frameworks hold sequencing errors
How it was run: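 Nanobodies from a synthetic yeast display library (Saccharomyces cerevisiae BJ5465), induced 36–48 hours with galactose, were stained 1 hour at 4 °C with 10% biotinylated, detergent-solubilized Sf9 membrane reagent, enriched on streptavidin microbeads, then FACS-sorted. Anti-HA (expression) and streptavidin (reagent binding) fluorescence set low and high (top ~1%) gates. Polyreactivity labels come from the gate of origin. Genes were colony-PCR amplified, MiSeq 2 × 250 sequenced and filtered by CDR length.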
In the case of “QVQLVESGGGLVHAGGSLRLSCAASGRIFGTNAMGWYIQAPGKERELVATITRGGGNTYYADSVKVRFTISRDHAMNTVDLQMNSLKPEDTAVYYCNVDYGVHVPPRDYWGQGTQVTVSS”, the “polyreactivity (PSR sort gate)” value is reported as “low polyreactivity”. For “QVQLVESGGGLVHAGGSLRLSCAASGRIFQVYAMGWYRQAPGKERELVAAISARGGSTYYADSVKGRFTISRDNAKNTVYLQMNSLKPEDTAVYYCAARSAYGTQRLYYWGQGTQVTVSS”, the “polyreactivity (PSR sort gate)” value was “high polyreactivity”. In the case of “QVQLVESGGGLVHAGGSLRLSCAASGRIFTSYVMGWYRQAPAKERELVAAITRSGGSTYYADSVKGRFTISRDNAKNTVYLQMISLKPEDTAVYYCNALTRRQKGGEGGGYWGQGTQVTVSS”, the “polyreactivity (PSR sort gate)” value is reported as “high polyreactivity”. In the case of “QVQLVESGGGLVHAGGSLRLSCAASGRIFTWNAMGWYRQAPGKERELVARISSGTRTNYADSVKGRFTISRDNAKNTVYLQMNSLKPEDTAVYYCAAGYYYGYPPRDYWGQGTQVTVSS”, the “polyreactivity (PSR sort gate)” value is reported as “high polyreactivity”. For “QVQLVESGGGLVHAGGSLRLSCAASGRIFVRNDMGCYRQAPGKERELVAAISWDGGSTYYADSVKGRFTISRDNAKNTVYLQMNSLKPEDTAVYYCATDATRPWYDYWGQGTQVTVSS”, the “polyreactivity (PSR sort gate)” value was “low polyreactivity”. With “QVQLVESGGGLVHAGGSLRLSCAASGRIFYKYAMAWYRQAPGKERELVAAISTRGGSTYYADSVKWRFTISRDNAKNTVYLQMNSLKPEDTAVYYCAALSAYGYDYWGQGTQVTVSS” the “polyreactivity (PSR sort gate)” value was “high polyreactivity”. In the case of “QVQLVESGGGLVHAGGSLRLSCAASGRIFYYNAMGWYRQAPGKEREFVAAIRSSGGSTYYSDSVKGRFTISRDNAKNTVYLQMNSLKPEDTAVYYCAADFYGLGDYGVDYWGQGTQVTVSS”, the “polyreactivity (PSR sort gate)” value is reported as “low polyreactivity”. For “QVQLVESGGGLVHAGGSLRLSCAASGRIYYFNAMGWYRQAPGKERELVATITYIGGSTHYADSEKGRFTISRDNAKNTVYLQMNSLKPEVTAVYYCAVRDGKDTDTYWYGYWGQGTQVTVSS”, the “polyreactivity (PSR sort gate)” value was “low polyreactivity”. In the case of “QVQLVESGGGLVHAGGSLRLSCAASGRTFSYYTMAWYRQAPGKERELVAAISGRGGSTYYADSVKGRFTISRDNAKNTVYLQMNSLKPEDTAVYYCNVVKQYLGGVPDFDYWGQGTQVTVSS”, the “polyreactivity (PSR sort gate)” value is reported as “low polyreactivity”. In the case of “QVQLVESGGGLVHAGGSLRLSCAASGRTFTRNAMGWYRQAPGKERELVAAISISGGRTYYADSVKGRFTISRDNAKNTVSLQMNSLKPEDTAVYYCANVTTSKYDYDYWGQGTQVTVSS”, the “polyreactivity (PSR sort gate)” value is reported as “high polyreactivity”. For “QVQLVESGGGLVHAGGSLRLSCAASGRTFYGNAMGWYRQAPGKEREFVAGISWRGGRTYYADSVKGRFTISRDNAKNTVYLQMHSLKPEDTGVYYCNARYIYTRPRPRNYWGLGTQVTVSS”, the “polyreactivity (PSR sort gate)” value was “high polyreactivity”. In the case of “QVQLVESGGGLVHAGGSLRLSCAASGRTLGGYAMGWYRQAPGKERELVAAISWNGGSTYYADSVKVRFTISRDNAKNTVYFQMNCLKPEDSAVYYCARVYSGPKAGAYDYWGQGTQVTVSS”, the “polyreactivity (PSR sort gate)” value is reported as “high polyreactivity”. In the case of “QVQLVESGGGLVHAGGSLRLSCAASGSFFRSYAMGWYRQAPGKEMEWVATISSSTGSTYYADSVKGRFTISRDNAKNTVYLQMNSLKPEDTSVYYCAAVQPVKSCSGYHFWYYWGQGTQVTVSS”, the “polyreactivity (PSR sort gate)” value is reported as “high polyreactivity”. With “QVQLVESGGGLVHAGGSLRLSCAASGSIFDYYAMGWYRQAPGKERELVAAISTSTSSTYYADSVKGRFTISRDNAKNTVCLQMNSLKPEDTAVYYCAAEGESQPESPGYDYWGQGTQVTVSS” the “polyreactivity (PSR sort gate)” value was “low polyreactivity”. For “QVQLVESGGGLVHAGGSLRLSCAASGSIFGDYAMGWYRQAPGKERELVAAITRRGSTYYADSVKGRFTISRDNAKNTVYLQMNSLIPEDTAVFYCAKDVYPGRAGRPGIPYPYDYWGQGTQVTVSS”, the “polyreactivity (PSR sort gate)” value was “low polyreactivity”. With “QVQLVESGGGLVHAGGSLRLSCAASGSIFGTNAMGWYRQAPGQERELVAAISYSGGSTYYADSVKGRFTISRDPAKNTVYLQMNSLKPDDTAVYYCAKVVRYWWERDYWGKGTQVTVSS” the “polyreactivity (PSR sort gate)” value was “high polyreactivity”. With “QVQLVESGGGLVHAGGSLRLSCAASGSIFGVNMGWYRQAPGKERELVASITSGGSTNYADSVKGRFTISRDNAKNTVYLQMNSLKPEDTAVYYCAARAERVREYNYWGQGTQVTVSS” the “polyreactivity (PSR sort gate)” value was “low polyreactivity”. With “QVQLVESGGGLVHAGGSLRLSCAASGSIFKYYAMGWYRQAPGKERELVAAISSGGSTNYADSVKGRFTISRDNAKNTVYLQMNSLKPEDTAVYYCAVDRYCWLDGYDYWGQGTQVTVSS” the “polyreactivity (PSR sort gate)” value was “high polyreactivity”. For “QVQLVESGGGLVHAGGSLRLSCAASGSIFTRNAMGWYRQAPGKERELVAAISRRGVSTYYADSVKGRFTISRDNAKNTVYLQMNSLKPEDTAVYYCNATIRYYRRGKLYDYWGQGTQVTVSS”, the “polyreactivity (PSR sort gate)” value was “high polyreactivity”. With “QVQLVESGGGLVHAGGSLRLSCAASGSIFVPYALGWYRQAPGKDRELVAAMTSSGSSTYYADSVKGRFTISRDNAKNTVYLQMNSLKPDDTAGYYCAADYFDWEGNGYYYWGQGNQVTVSS” the “polyreactivity (PSR sort gate)” value was “high polyreactivity”. With “QVQLVESGGGLVHAGGSLRLSCAASGSIFYNYAKGWYRQAPGKERELVAAIDSGGSTYYADSVKGRFTISRDNAKNTVYLQMNSLKPEDSAVYSCAADTYWFVYYGYDYWGQGTQVTVSS” the “polyreactivity (PSR sort gate)” value was “low polyreactivity”. For “QVQLVESGGGLVHAGGSLRLSCAASGSTEYNAMGWYRQSPGTQRELVAVITDSDGSTYYADSVKGRYTISRDNAKHTVYLQMNSLKREDTAVYYCAADDYAYSYGYWLTYDYWGQGPQVTVSS”, the “polyreactivity (PSR sort gate)” value was “low polyreactivity”. In the case of “QVQLVESGGGLVHAGGSLRLSCAASGSTFDGYTMGWYRQAPGTERELVAAITDSGGSTYYADSVKGRFTISRDKAKNTVYLQMNSQKPEDTAVYYFAAAVPELYEVRYHDDYWGQGTQVTVSS”, the “polyreactivity (PSR sort gate)” value is reported as “low polyreactivity”. In the case of “QVQLVESGGGLVHAGGSLRLSCAASGSTFFLYAMGWYRQAHGKERELVAAISSDGSTYYADSVKGRFTISRDNAKHTVYLQMNSLKPEDTAVYYCAAEYTPSYYEYYYWGQGTQVTVSS”, the “polyreactivity (PSR sort gate)” value is reported as “low polyreactivity”. In the case of “QVQLVESGGGLVHAGGSLRLSCAASGSTFHYYAMGWYRQPPGKERELDAGITSGGGRTYADSVKGRFTISRDNAKITVYLQMNSLNPEDTAVYYCNARPSTGWTIYGVDYWGQGTQVTVSS”, the “polyreactivity (PSR sort gate)” value is reported as “low polyreactivity”. In the case of “QVQLVESGGGLVHAGGSLRLSCAASGSTFKYYAMGWYRQAPGKERELVAAISSGNSTYYADSVKGRFTISRDNAKNTVYLQMNSLKPEDTAVYYCAAYWRRDPMDYWGQGTQVTVSS”, the “polyreactivity (PSR sort gate)” value is reported as “high polyreactivity”. With “QVQLVESGGGLVHAGGSLRLSCAASGSTFLSYAMGWYRQAPGKEREFVAAISWSDVNTYYADSVKGRFTISRDNAKNTVYLQMISLKPEDTAVYYCAAYYPSHDYSGFWSDTYEYWGQGTQVTVSS” the “polyreactivity (PSR sort gate)” value was “low polyreactivity”. For “QVQLVESGGGLVHAGGSLRLSCAASGSTFNTNTMGWYRQAPGKERELVAAITKSGGSTYYADSVKGRFTISRDNAKNTVYLQMNSLKPEDTAVYYCNAYPDDSYKYLYWSDGDYWGQGTQVTVSS”, the “polyreactivity (PSR sort gate)” value was “low polyreactivity”. With “QVQLVESGGGLVHAGGSLRLSCAASGSTFSWYVMGWYRQAPGKERELVAAISYRGGRTYYADSVKGRFTISRDNAKNTVYLQMNSLKPEDTAVYYCAARGVVDAGRTNRPYDYWGQGTQVTVSS” the “polyreactivity (PSR sort gate)” value was “low polyreactivity”. With “QVQLVESGGGLVHAGGSLRLSCAASGSTFYSYAMGGYRQAPGKERELVAAISRSGGRTYYADSVKGRFTISRDIAKNTVYLQMKSLKPEDTAVYYCNAVNSVTTSTRTRAKYAAYDSWGQGTQVTVSS” the “polyreactivity (PSR sort gate)” value was “high polyreactivity”. With “QVQLVESGGGLVHAGGSLRLSCAASGSTYRANSMGWYRQAPGKERELVAAITRRGGSTYYADSVKGRFTISRDNAKNTVYLQMNSLKPEDTAVYYCAAASRYGEGDYWGQGTQVTVSS” the “polyreactivity (PSR sort gate)” value was “high polyreactivity”. In the case of “QVQLVESGGGLVHAGGSLRLSCAASGTTLAIYAMGWYRQAPGKERELVASISRVGSTNYADSVKGRFTISRDNAKNTVYLQRNSLKPEDTAVYYCAARRSSYVILRAYYYWGQGTQVTVSS”, the “polyreactivity (PSR sort gate)” value is reported as “high polyreactivity”. In the case of “QVQLVESGGGLVHAGGSLRLSCAAYGSTSLVNAMGWYRQAPGKERELVAAITRGGNTYYADSVKGRFTISRDNAKNTVYLQMNSLKPEDTAVYYCAAEDHTEQGQYDYWGQGTQVTVSS”, the “polyreactivity (PSR sort gate)” value is reported as “low polyreactivity”. In the case of “QVQLVESGGGLVHAGGSLRLSCAPSGSTFDDYTMGWYRPAPGKERELVAAISSAGSTNYADSVKGRFTISRDNAKNTVYLQMNSLKPEDTAVYYCAAQVHPIRYDYWGQGTQVTVSS”, the “polyreactivity (PSR sort gate)” value is reported as “low polyreactivity”. For “QVQLVESGGGLVHAGGSLRLSFAASGRTFQVYAMGWSRQAPGKERELVAAITSLGGTYYADSVKGRFTISRYNAKNTVYLQMNSLKPEDTAVYYCAARARSTPRKYYYTRGYWGQGTQVTVSS”, the “polyreactivity (PSR sort gate)” value was “high polyreactivity”. In the case of “QVQLVESGGGLVHAGGSLRLSSAASGRIFWYYALGWYRQPPGKERELVASIRGSGGSTYADSVKGRFTVSRENAKNTVYLPMNSLKPEDTAVYYCAASGRQRGHPMYYWRQGTQVTVSS”, the “polyreactivity (PSR sort gate)” value is reported as “high polyreactivity”. With “QVQLVESGGGLVHAGGSLRLSSAASGRTFKVYAMGWYRQAPGKERELVAAITGGGSTNYADSVKGRFTISRDNAKNTVYLQMYSLKPEDTAVYYCNARYYYRLVKWSRFSSYDYWGQGTQVTVSS” the “polyreactivity (PSR sort gate)” value was “low polyreactivity”. In the case of “QVQLVESGGGLVHAGGSLRLSSAPSGSTFQAYAMGWYRAAPGKERELVAAINEGDSRTYYADSVKGRFTISRDNAKNTVYLPMNSQKPEDTAVYYCAIGNFRPYDYWGQGTQVTVSS”, the “polyreactivity (PSR sort gate)” value is reported as “low polyreactivity”. In the case of “QVQLVESGGGLVHAGGSLRLTCAASGSTFGKYAMGWYRQAPGKERELVAAITWSGASTFYADSVKGRFTISRDNAKNTVYLQMNSMKPEDTAGYYCAARSFKSYYIFDYWGQGTQVTVSS”, the “polyreactivity (PSR sort gate)” value is reported as “low polyreactivity”. For “QVQLVESGGGLVHAGGSLSLSCAASGFILGVYAMGWYRQEPGKERELVAAITFTGASTYYADSVKGRFTLSRDNAKNTVYLQMNSLKPEDTAVNYCNKSSAYYRYEYWGQGTQVTVSS”, the “polyreactivity (PSR sort gate)” value was “low polyreactivity”. In the case of “QVQLVESGGGLVHAGGSLSLSCAASGRTFRQYAMGWYRQAHGKERELVAAISKGGGSTYYADSEKGRFTISRDNAKNTVYLQMNSLKPEVKAVYYCNAPGYVLKGYDYWGQGTQVTVSS”, the “polyreactivity (PSR sort gate)” value is reported as “high polyreactivity”. For “QVQLVESGGGLVKAGASLRLSCAASGRTFRHNARGWYRQAPGKERELVAAITIGTNTYYADSVKGRFTISRDNAKNTVYLQMNSLKPEDTEVYYCAAVKDRYAYVPPRFDYWGQGSQVTVSS”, the “polyreactivity (PSR sort gate)” value was “low polyreactivity”. For “QVQLVESGGGLVKAGCSLRLSCAASGRTFGTYAMGWYRQAPGKERELVAAISSGGSTYADSVKGRFTISRDNAMNTVYLQMKSLKPEDTAVYYCTTRYPMGGTYTRYPLKGDYWGQGTQVTVSS”, the “polyreactivity (PSR sort gate)” value was “high polyreactivity”.
